The source of these data is patent publication US20240384250A1, “FIBROBLAST GROWTH FACTOR 23 MODULATING COMPOUNDS” (THE UAB RESEARCH FOUNDATION, priority 2021, published 2024).

Entries after “also recorded” stand apart in the source; their conditions may differ.

Test [1] has as its system neonatal rat ventricular myocytes. Kind of test: Hypertrophic growth of isolated neonatal rat ventricular myocytes (cell area). The class given is cell-based. As for the experimental part: Neonatal rat ventricular myocytes (NRVMs) were isolated using a kit according to the manufacturer's protocol (LK003300, Worthington Biochemical Corporation), as done previously.^13,16,17 Briefly, hearts from 1- to 3-day-old Sprague Dawley rats (Envigo) were harvested and minced in calcium- and magnesium-free Hanks balanced salt solution and the tissue was digested with 50 μg/ml of trypsin at 4° C. for 20 to 24 hours. Soybean trypsin inhibitor in Hanks balanced salt solution was added, and the tissue was further digested with collagenase (in Leibovitz L-15 medium) under slow rotation (0.14 g) at 37° C. for 45 minutes. Cells were broken up by triturating the suspension 20× with a standard 10-ml plastic serological pipette. Cells were then filtered through a cell strainer (70 μm, BD Falcon). Cells were incubated at room temperature for 20 minutes and spun at 100 g for 5 minutes. The cell pellet was resuspended in plating medium (DMEM Base [10013CV, Corning], 17% M199 [12350039, Gibco], 15% FBS [26140079, Gibco], I× Pen/Strep [15140122, Gibco]). For cell tracings, NRVMs were grown in 24-well plates on glass coverslips (CLS1760012, Chemglass). Slips were precoated with laminin (23017015, Invitrogen) at 10 μg/ml for 1 hour at 37° C. dissolved in PBS. Laminin was aspirated, and cells and medium were added. Cells were counted by a hemocytometer and plated at 4×10^5 cells per well. […] After 48 hours, maintenance medium was replaced, and after another 48 hours, cells were ready for treatment, giving a total of 72 hours of plating medium and 96 hours of maintenance medium before treatment. […]
The medium was aspirated, and cultured NRVMs were fixed in 2% paraformaldehyde (P-6148, Sigma-Aldrich) and 4% sucrose dissolved in PBS for 5 minutes followed by permeabilization with 1% Triton X-100 dissolved in PBS for 10 minutes. […] The cross-sectional area of myocytes was measured on the basis of α-actinin-positive staining using ImageJ software (v1.53, National Institutes of Health). […]

The next test concerns FGF23 and FGFR1c. The test can be described thus: sKL detection assay (FGF23 coated, Fc-FGFR1c detection). The class given is binding. As for the experimental part: Commercially available ELISA plates (Maxisorp) are coated with 5 μg/ml of recombinant FGF23 protein (R&D Systems) and unspecific binding sites are blocked with BSA/Tween20. Wells are incubated with sKL in solution (which can be plasma, serum or cell culture supernatants) for one hour, washed and incubated for one hour with 750 ng/ml of recombinant FGFR1α(IIIc)-Fc (R&D Systems), which is a chimeric protein consisting of the FGFR1 ectodomain and the Fc region of a human IgG. FGFR1 only binds to FGF23 in the presence of sKL, and the formation of this trimeric sandwich complex is then measured by detecting the presence of the Fc domain that is coupled to FGFR1. To do so, wells are washed and incubated with 400 ng/ml of anti-human IgG conjugated to horseradish peroxidase (HRP; Promega). Wells are washed and incubated with HRP substrate. After development for about 30 minutes, reactions are analyzed on a standard plate reader via absorptions at […]. Incubations with recombinant sKL dissolved in PBS at defined concentrations serve as standards that are used as reference values to determine sKL concentrations in the studied human samples. […]
HEK293 cells were plated in 10 cm dishes supplemented with 10% FBS (26140079, Gibco) and I× Pen/Strep (15140122, Gibco). Cells were transfected with appropriate klotho or green fluorescent protein cDNA constructs. After 2 days, clones were selected by using 1 μg/ml of puromycin (A1113803, Gibco). Cells were then split and plated in 10 cm dishes in DMEM supplemented with FBS and puromycin. After 48 hours, cells were lysed in 1 ml of RIPA buffer with the addition of a protease inhibitor (11873580001, Roche) for 30 minutes. The mixture was then centrifuged at 20,000 g for 1 hour to remove all cell debris. Activity assay was run as above in the sKL halflife study. Instead of serum, 20 μl of the indicated cell lysate was used and combined with 80 μl of activity assay buffer.

B1: sKL: recombinant soluble α-klotho ectodomain, mouse aa 35-982 and human aa 34-981, FLAG- or Strep/His-tagged, purified from HEK293 cells (protein)
chain: EPGDGAQTWARFSRPPAPEAAGLFQGTFPDGFLWAVGSAAYQTEGGWQQHGKGASIWDTFTHHPLAPPGDSRNASLPLGAPSPLQPATGDVASDSYNNVFRDTEALRELGVTHYRFSISWARVLPNGSAGVPNREGLRYYRRLLERLRELGVQPVVTLYHWDLPQRLQDAYGGWANRALADHFRDYAELCFRHFGGQVKYWITIDNPYVVAWHGYATGRLAPGIRGSPRLGYLVAHNLLLAHAKVWHLYNTSFRPTQGGQVSIALSSHWINPRRMTDHSIKECQKSLDFVLGWFAKPVFIDGDYPESMKNNLSSILPDFTESEKKFIKGTADFFALCFGPTLSFQLLDPHMKFRQLESPNLRQLLSWIDLEFNHPQIFIVENGWFVSGTTKRDDAKYMYYLKKFIMETLKAIKLDGVDVIGYTAWSLMDGFEWHRGYSIRRGLFYVDFLSQDKMLLPKSSALFYQKLIEKNGFPPLPENQPLEGTFPCDFAWGVVDNYIQVDTTLSQFTDLNVYLWDVHHSKRLIKVDGVVTKKRKSYCVDFAAIQPQIALLQEMHVTHFRFSLDWALILPLGNQSQVNHTILQYYRCMASELVRVNITPVVALWQPMAPNQGLPRLLARQGAWENPYTALAFAEYARLCFQELGHHVKLWITMNEPYTRNMTYSAGHNLLKAHALAWHVYNEKFRHAQNGKISIALQADWIEPACPFSQKDKEVAERVLEFDIGWLAEPIFGSGDYPWVMRDWLNQRNNFLLPYFTEDEKKLIQGTFDFLALSHYTTILVDSEKEDPIKYNDYLEVQEMTDITWLNSPSQVAVVPWGLRKVLNWLKFKYGDLPMYIISNGIDDGLHAEDDQLRVYYMQNYINEALKAHILDGINLCGYFAYSFNDRTAPRFGLYRYAADQFEPKASMKHYRKIIDSNGFPGPETLERFCPEEFTVCTECSFFHTRKS
modifications: left off: small tags and cut ends
notes: recombinant soluble α-klotho ectodomain, mouse aa 35-982 and human aa 34-981, FLAG- or Strep/His-tagged, purified from HEK293 cells
On to B1, for which, in test [1] (cotreatment with FGF23 25 ng/ml, 48 hours, sKL 100 ng/ml, anti-FGF23 1 μg/ml), the “FGF23-induced hypertrophy (increase in cell area)” value was “FGF23 did not induce hypertrophy; also recorded: blocked this effect”. The “NRVM area, treatment by itself” value in test [1] (without FGF23, 48 hours) is “no effect”. Also, the “binding in the sKL detection assay, total cell lysates” value with FGF23 and FGFR1c (lysates of stably transfected HEK293T cells) is given as “strong signal”. In the test on FGF23 and FGFR1c (purified proteins), the “binding activity relative to Com.sKL” value was “approximately 7 ×”.

B2: FGF23: recombinant fibroblast growth factor 23 protein from R&D Systems (protein)
chain: YPDTSPLLGSNWGSLTHLYTATARTSYHLQIHRDGHVDGTPHQTIYSALMITSEDAGSVVITGAMTRRFLCMDLHGNIFGSLHFSPENCKFRQWTLENGYDVYLSQKHHYLVSLGRAKRIFQPGTNPPPFSQFLARRNEVPLLHFYTVRPRRHTRSAEDPPERDPLNVLKPRPRATPVPVSCSRELPSAEEGGPAASDPLGVLRRGRGDARGGAGGADRCRPFPRFV
In the case of B2, in test [1] (FGF23 alone, 48 hours), the cell area result is listed as “induced hypertrophic growth; also recorded: increase in cell area; also recorded: stepwise elevation in the cell area”.
